From paper PMC6056499, “A systematic dissection of sequence elements determining β-Klotho and FGF interaction and signaling” (Scientific Reports, 2018)
Read-outs that look alike come from different tables or passages of the source. Values belong to the molecule of their own block, whether it stands above or below them.

Experiments:
β-Klotho/FGFR1c = assay: Elk1-luciferase reporter assay in CHO reporter cells stably expressing human β-Klotho and FGFR1c; assay type: cell-based; conditions: 4 h treatment, three independent experiments in duplicates, read-out: EC50, stimulation of Elk1-luciferase reporter activity
Procedure: To measure the signaling activity of Fc-FGF21 mutants, ELK luciferase assay was performed in CHO cells stably transfected with human FGFR1c, β-Klotho and the two reporter constructs described above. CHO reporter cells were maintained in DMEM supplemented with 10% (v/v) dialyzed FBS (GE Healthcare Life Sciences), 6 µg/mL puromycin (Sigma) and 400 μg/mL hygromycin (Invitrogen) in a 37 °C incubator with 5% CO2. Cells were plated on 96-well plates in growth medium and incubated overnight. The next day, cells were serum-starved in Ham’s F-12K Nutrient Mixture (Corning) supplemented with 1% (w/v) BSA (Sigma) overnight. Following starvation, Fc-FGF21 protein was added to cells in starvation medium. Plates were incubated for 4 hours at 37 °C with 5% CO2, after which the cells were lysed in Steady-Glo luciferase reagent (Promega). Luciferase activity was measured and analyzed as described above.

β-Klotho/FGFR complex = assay: Elk1-luciferase reporter assay in HEK293T reporter cells transiently transfected with full-length WT β-Klotho; assay type: cell-based, human; conditions: 6 h treatment, mean ± SD of three independent experiments, read-out: EC50, stimulation of Elk1-luciferase reporter activity (KLB WT)
Procedure: (§1) To measure the signaling activity of β-Klotho mutants, ELK luciferase assay was performed in HEK293T cells that were stably transfected with reporter constructs containing 5 × UAS upstream of luciferase and Gal4 DNA-binding domain fused to ELK1. Briefly, HEK293T reporter cells were maintained in DMEM supplemented with 10% (v/v) FBS (Gibco) and 2 mM GlutaMax (Gibco) in a 37 °C incubator with 5% CO2. Cells were plated on 96-well plates in growth medium and incubated overnight. The next day, cells were transfected with expression vectors encoding full-length β-Klotho WT or mutants using the Lipofectamine 2000 transfection reagent (Invitrogen) according to the manufacturer’s protocol. Cells were serum-starved in DMEM supplemented with 5% (v/v) FBS (Gibco) and 2 mM GlutaMax (Gibco) overnight the day after transfection and treated with FGF21 for 6 hours at 37 °C with 5% CO2, after which the cells were lysed in Bright-Glo luciferase reagent (Promega). Luciferase activity was measured in relative luminescence units on the EnVision Multilabel Plate Reader (PerkinElmer) according to the manufacturer’s instructions. All assays were performed in duplicates. EC50 values were determined from a three-parameter logistic regression model with the least squares fit using GraphPad Prism version 7.

[1] = test system: FGFR (expressed endogenously in HEK293T reporter cells); assay: Elk1-luciferase reporter assay in HEK293T reporter cells without β-Klotho (no KLB); assay type: cell-based, human; conditions: d.n.c = did not converge
Procedure: as §1, with “The next day, cells were transfected with expression vectors encoding full-length β-Klotho WT or mutants using the Lipofectamine 2000 transfection reagent (Invitrogen) according to the manufacturer’s protocol.” left out

EC50 (β-Klotho/FGFR1c): 0.57 ± 0.09 nM | EC50 (β-Klotho/FGFR complex; Fig 3A): 3.5 ± 1.1 nM | EC50 (β-Klotho/FGFR complex; Fig 3D): 2.87 ± 1.15 nM
B1: FGF21: mature human FGF21 protein, endocrine fibroblast growth factor (protein)
chain: HPIPDSSPLLQFGGQVRQRYLYTDDAQQTEAHLEIREDGTVGGAADQSPESLLQLKALKPGVIQILGVKTSRFLCQRPDGALYGSLHFDPEACSFRELLLEDGYNVYQSEAHGLPLHLPGNKSPHRDPAPRGPARFLPLPGLPPALPEPPGILAPQPPDVGSSDPLSMVGPSQGRSPSYAS
modifications: biotin (EZ-Link Sulfo-NHS-LC-Biotin) in the solid-phase binding assay; biotinylated as the labelled ligand in AlphaScreen
notes: mature human FGF21 protein, endocrine fibroblast growth factor
EC50, stimulation of Elk1-luciferase reporter activity (no KLB) ([1]; Fig 3A, mean ± SD of three independent experiments): d.n.c | EC50, stimulation of Elk1-luciferase reporter activity (no KLB) ([1]; Fig 3D): d.n.c

EC50 (β-Klotho/FGFR1c): 1.85 ± 0.44 nM
B2: Fc-FGF21: mature human FGF21 polypeptide fused with the human Fc fragment at the N-terminus (protein)
chain: B1 chain
modifications: left off: Fc (human), N-terminal, kept
notes: mature human FGF21 polypeptide fused with the human Fc fragment at the N-terminus
